One experiment relates to 3×MBT domain of L3MBTL1. Briefly: Triple SILAC pull-down, 3xMBT/3xMBTD355N ratio (cytoplasmic, nuclear and chromatin fractions of 293T cells).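 For all read-outs here: proteins quantified with MaxQuant, requiring at least two unique peptides and quantification in both label directions, normalized to the mean of proteins from a digested loading control.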 The format is binding, human. To be noted: SILAC ratio, pull-down 3xMBT vs 3xMBTD355N; for 3xMBT/D355N UNC Heavy: experiment with UNC0638 in heavy SILAC media; for 3xMBT/D355N UNC Light: experiment with UNC0638 in light SILAC media.

The next experiment deals with T1, G9a and GLP (Homo sapiens, UniProt Q96KQ7+Q9H9B1).
T1 sequence (Q96KQ7 2-1210 limits assumed): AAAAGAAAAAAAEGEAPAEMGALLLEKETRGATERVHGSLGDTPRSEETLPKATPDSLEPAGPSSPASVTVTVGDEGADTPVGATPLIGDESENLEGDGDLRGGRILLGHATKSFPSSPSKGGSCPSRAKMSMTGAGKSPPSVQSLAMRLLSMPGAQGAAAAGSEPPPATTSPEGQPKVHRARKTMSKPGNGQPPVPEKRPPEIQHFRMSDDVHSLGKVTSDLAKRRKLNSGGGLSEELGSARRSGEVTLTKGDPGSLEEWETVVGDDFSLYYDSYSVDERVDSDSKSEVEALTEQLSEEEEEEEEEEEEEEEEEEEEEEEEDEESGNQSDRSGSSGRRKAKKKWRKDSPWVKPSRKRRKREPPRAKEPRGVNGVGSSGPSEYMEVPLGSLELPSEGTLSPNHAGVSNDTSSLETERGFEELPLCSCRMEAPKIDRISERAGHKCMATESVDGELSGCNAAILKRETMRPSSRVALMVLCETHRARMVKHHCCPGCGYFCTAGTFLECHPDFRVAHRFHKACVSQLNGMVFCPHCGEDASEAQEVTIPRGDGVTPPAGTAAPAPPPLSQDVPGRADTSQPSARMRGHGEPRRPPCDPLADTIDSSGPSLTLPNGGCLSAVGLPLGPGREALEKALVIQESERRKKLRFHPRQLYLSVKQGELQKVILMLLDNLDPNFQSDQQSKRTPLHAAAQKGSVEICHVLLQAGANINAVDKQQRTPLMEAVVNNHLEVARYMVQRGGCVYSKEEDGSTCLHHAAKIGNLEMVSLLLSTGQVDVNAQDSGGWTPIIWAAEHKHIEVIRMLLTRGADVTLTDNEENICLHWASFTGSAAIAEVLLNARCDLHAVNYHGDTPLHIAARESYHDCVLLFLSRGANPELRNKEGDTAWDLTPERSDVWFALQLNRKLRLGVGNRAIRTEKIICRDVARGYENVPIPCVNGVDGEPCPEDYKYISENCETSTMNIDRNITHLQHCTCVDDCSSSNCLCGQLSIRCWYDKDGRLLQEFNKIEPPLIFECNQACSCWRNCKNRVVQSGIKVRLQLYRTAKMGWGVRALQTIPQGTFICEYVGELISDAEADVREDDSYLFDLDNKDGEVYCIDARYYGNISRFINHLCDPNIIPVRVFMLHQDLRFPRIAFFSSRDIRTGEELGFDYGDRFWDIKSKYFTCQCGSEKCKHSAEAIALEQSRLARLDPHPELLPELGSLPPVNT
T1 sequence (Q9H9B1 2-1298 limits assumed): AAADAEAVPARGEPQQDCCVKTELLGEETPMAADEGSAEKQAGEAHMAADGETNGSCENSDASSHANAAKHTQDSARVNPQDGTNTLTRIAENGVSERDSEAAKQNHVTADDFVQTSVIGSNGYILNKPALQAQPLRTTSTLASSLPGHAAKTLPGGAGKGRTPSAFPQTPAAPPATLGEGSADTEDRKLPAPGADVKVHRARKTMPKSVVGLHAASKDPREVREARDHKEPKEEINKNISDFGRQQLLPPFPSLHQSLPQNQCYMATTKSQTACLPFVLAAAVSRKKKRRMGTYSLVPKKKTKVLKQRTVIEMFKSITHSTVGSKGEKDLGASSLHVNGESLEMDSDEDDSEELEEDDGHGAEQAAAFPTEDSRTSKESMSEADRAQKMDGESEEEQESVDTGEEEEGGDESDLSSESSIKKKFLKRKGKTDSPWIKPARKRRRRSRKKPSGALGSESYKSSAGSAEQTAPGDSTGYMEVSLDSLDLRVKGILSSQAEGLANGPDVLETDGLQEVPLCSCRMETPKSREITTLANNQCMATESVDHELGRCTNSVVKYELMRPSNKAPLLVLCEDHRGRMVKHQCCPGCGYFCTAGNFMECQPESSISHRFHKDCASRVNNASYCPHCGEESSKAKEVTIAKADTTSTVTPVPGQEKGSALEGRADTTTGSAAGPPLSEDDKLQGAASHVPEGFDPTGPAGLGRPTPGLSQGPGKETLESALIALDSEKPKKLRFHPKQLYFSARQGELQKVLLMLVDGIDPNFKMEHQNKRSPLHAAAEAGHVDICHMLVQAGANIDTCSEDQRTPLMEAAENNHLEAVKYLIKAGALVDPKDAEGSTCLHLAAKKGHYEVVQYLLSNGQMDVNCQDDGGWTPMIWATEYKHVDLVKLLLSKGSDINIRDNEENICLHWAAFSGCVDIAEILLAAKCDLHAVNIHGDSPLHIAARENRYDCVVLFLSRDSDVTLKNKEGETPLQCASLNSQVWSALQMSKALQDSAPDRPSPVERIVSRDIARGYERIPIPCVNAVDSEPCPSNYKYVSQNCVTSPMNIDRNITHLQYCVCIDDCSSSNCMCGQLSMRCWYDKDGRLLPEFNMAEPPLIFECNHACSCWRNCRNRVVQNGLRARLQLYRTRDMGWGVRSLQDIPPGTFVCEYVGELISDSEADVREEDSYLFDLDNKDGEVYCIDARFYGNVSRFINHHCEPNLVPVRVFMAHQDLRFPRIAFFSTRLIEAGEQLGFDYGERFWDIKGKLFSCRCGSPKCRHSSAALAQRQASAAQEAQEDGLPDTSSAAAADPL
The experiment can be described thus: Triple SILAC pull-down after UNC0638 treatment of 293T cells, DMSO/UNC0638 ratio of protein captured by 3×MBT.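 For all read-outs here: mass spectrometry (Q-Exactive) SILAC quantitation, DMSO/UNC0638 ratio computed after subtracting 3×MBTD355N mutant pull-down background, only proteins with at least twofold 3×MBT over mutant signal considered.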 The format is cell-based. Also noted: cells were treated for 24 hours with UNC0638 at 2.5 μM or DMSO vehicle control; endogenous in cells; host or cells: HEK 293T. The settings on record: for Relative to UNC0638 UNC Heavy / Relative to UNC0638 UNC Light: SILAC ratio DMSO/UNC0638 of protein pulled down with 3xMBT; for Relative to UNC0638 UNC Heavy: UNC0638 in heavy SILAC media; for Relative to UNC0638 UNC Light: UNC0638 in light SILAC media; for Relative to UNC0638 Average: average of UNC Light and UNC Heavy experiments.

B1: HNRNPA1 (protein, UniProt P09651 1-372, looked up)
Heterogeneous nuclear …: MSKSESPKEPEQLRKLFIGGLSFETTDESLRSHFEQWGTLTDCVVMRDPNTKRSRGFGFVTYATVEEVDAAMNARPHKVDGRVVEPKRAVSREDSQRPGAHLTVKKIFVGGIKEDTEEHHLRDYFEQYGKIEVIEIMTDRGSGKKRGFAFVTFDDHDSVDKIVIQKYHTVNGHNCEVRKALSKQEMASASSSQRGRSGSGNFGGGRGGGFGGNDNFGRGGNFSGRGGFGGSRGGGGYGGSGDGYNGFGNDGGYGGGGPGYSGGSRGYGSGGQGYGNQGSGYGGSGSYDSYNNGGGGGFGGGSGSNFGGGGSYNDFGNYNNQSSNFGPMKGGNFGGRSSGPYGGGGQYFAKPRNQGGYGGSSSSSSYGSGRRF
For the molecule B1, in the experiment with 3×MBT domain of L3MBTL1, the “3xMBT/D355N UNC Heavy” value came to 3.75 log base 2 and the “3xMBT/D355N UNC Light” value is listed as 4.25 log base 2. Moreover, in the experiment with G9a and GLP, the “Relative to UNC0638 UNC Heavy” value is reported as 0.09 log base 2, the “Relative to UNC0638 UNC Light” value came to 0.25 log base 2 and the “Relative to UNC0638 Average” value was determined as 0.17 log base 2.

B2: RBMX (protein, UniProt P38159 1-391, looked up)
RNA-binding motif protein, X …: MVEADRPGKLFIGGLNTETNEKALEAVFGKYGRIVEVLLMKDRETNKSRGFAFVTFESPADAKDAARDMNGKSLDGKAIKVEQATKPSFESGRRGPPPPPRSRGPPRGLRGGRGGSGGTRGPPSRGGHMDDGGYSMNFNMSSSRGPLPVKRGPPPRSGGPPPKRSAPSGPVRSSSGMGGRAPVSRGRDSYGGPPRREPLPSRRDVYLSPRDDGYSTKDSYSSRDYPSSRDTRDYAPPPRDYTYRDYGHSSSRDDYPSRGYSDRDGYGRDRDYSDHPSGGSYRDSYESYGNSRSAPPTRGPPPSYGGSSRYDDYSSSRDGYGGSRDSYSSSRSDLYSSGRDRVGRQERGLPPSMERGYPPPRDSYSSSSRGAPRGGGRGGSRSDRGGGRSRY
For the molecule B2, in the experiment with 3×MBT domain of L3MBTL1, the “3xMBT/D355N UNC Heavy” value is given as 3.98 log base 2 and the “3xMBT/D355N UNC Light” value was 4.49 log base 2. In the experiment with G9a and GLP, the “Relative to UNC0638 UNC Heavy” value was 0.11 log base 2, the “Relative to UNC0638 UNC Light” value amounted to 0.24 log base 2 and the “Relative to UNC0638 Average” value was determined as 0.17 log base 2.

B3: CTTN (protein, UniProt Q14247 1-550, looked up)
Src substrate cortactin: MWKASAGHAVSIAQDDAGADDWETDPDFVNDVSEKEQRWGAKTVQGSGHQEHINIHKLRENVFQEHQTLKEKELETGPKASHGYGGKFGVEQDRMDKSAVGHEYQSKLSKHCSQVDSVRGFGGKFGVQMDRVDQSAVGFEYQGKTEKHASQKDYSSGFGGKYGVQADRVDKSAVGFDYQGKTEKHESQRDYSKGFGGKYGIDKDKVDKSAVGFEYQGKTEKHESQKDYVKGFGGKFGVQTDRQDKCALGWDHQEKLQLHESQKDYKTGFGGKFGVQSERQDSAAVGFDYKEKLAKHESQQDYSKGFGGKYGVQKDRMDKNASTFEDVTQVSSAYQKTVPVEAVTSKTSNIRANFENLAKEKEQEDRRKAEAERAQRMAKERQEQEEARRKLEEQARAKTQTPPVSPAPQPTEERLPSSPVYEDAASFKAELSYRGPVSGTEPEPVYSMEAADYREASSQQGLAYATEAVYESAEAPGHYPAEDSTYDEYENDLGITAVALYDYQAAGDDEISFDPDDIITNIEMIDDGWWRGVCKGRYGLFPANYVELRQ
In the case of B3, in the experiment on 3×MBT domain of L3MBTL1, the “3xMBT/D355N UNC Heavy” value turned out to be 1.52 log base 2 and the “3xMBT/D355N UNC Light” value is on record as 2.75 log base 2. Moreover, in the experiment with G9a and GLP, the “Relative to UNC0638 UNC Heavy” value was 0.26 log base 2, the “Relative to UNC0638 UNC Light” value was found to be 0.08 log base 2 and the “Relative to UNC0638 Average” value was 0.17 log base 2.

B4: ILF3 (protein, UniProt Q12906 1-894, looked up)
Interleukin enhancer-binding …: MRPMRIFVNDDRHVMAKHSSVYPTQEELEAVQNMVSHTERALKAVSDWIDEQEKGSSEQAESDNMDVPPEDDSKEGAGEQKTEHMTRTLRGVMRVGLVAKGLLLKGDLDLELVLLCKEKPTTALLDKVADNLAIQLAAVTEDKYEILQSVDDAAIVIKNTKEPPLSLTIHLTSPVVREEMEKVLAGETLSVNDPPDVLDRQKCLAALASLRHAKWFQARANGLKSCVIVIRVLRDLCTRVPTWGPLRGWPLELLCEKSIGTANRPMGAGEALRRVLECLASGIVMPDGSGIYDPCEKEATDAIGHLDRQQREDITQSAQHALRLAAFGQLHKVLGMDPLPSKMPKKPKNENPVDYTVQIPPSTTYAITPMKRPMEEDGEEKSPSKKKKKIQKKEEKAEPPQAMNALMRLNQLKPGLQYKLVSQTGPVHAPIFTMSVEVDGNSFEASGPSKKTAKLHVAVKVLQDMGLPTGAEGRDSSKGEDSAEETEAKPAVVAPAPVVEAVSTPSAAFPSDATAEQGPILTKHGKNPVMELNEKRRGLKYELISETGGSHDKRFVMEVEVDGQKFQGAGSNKKVAKAYAALAALEKLFPDTPLALDANKKKRAPVPVRGGPKFAAKPHNPGFGMGGPMHNEVPPPPNLRGRGRGGSIRGRGRGRGFGGANHGGYMNAGAGYGSYGYGGNSATAGYSQFYSNGGHSGNASGGGGGGGGGSSGYGSYYQGDNYNSPVPPKHAGKKQPHGGQQKPSYGSGYQSHQGQQQSYNQSPYSNYGPPQGKQKGYNHGQGSYSYSNSYNSPGGGGGSDYNYESKFNYSGSGGRSGGNSYGSGGASYNPGSHGGYGGGSGGGSSYQGKQGGYSQSNYNSPGSGQNYSGPPSSYQSSQGGYGRNADHSMNYQYR
As to B4, in the experiment on 3×MBT domain of L3MBTL1, the “3xMBT/D355N UNC Heavy” value is listed as 3.53 log base 2 and the “3xMBT/D355N UNC Light” value is 4.28 log base 2. Moreover, in the experiment with G9a and GLP, the “Relative to UNC0638 UNC Heavy” value was 0.11 log base 2, the “Relative to UNC0638 UNC Light” value came to 0.23 log base 2 and the “Relative to UNC0638 Average” value stood at 0.17 log base 2.

B5: PCBP2 (protein, UniProt Q15366 1-365, looked up)
Poly(rC)-binding protein 2: MDTGVIEGGLNVTLTIRLLMHGKEVGSIIGKKGESVKKMREESGARINISEGNCPERIITLAGPTNAIFKAFAMIIDKLEEDISSSMTNSTAASRPPVTLRLVVPASQCGSLIGKGGCKIKEIRESTGAQVQVAGDMLPNSTERAITIAGIPQSIIECVKQICVVMLETLSQSPPKGVTIPYRPKPSSSPVIFAGGQDRYSTGSDSASFPHTTPSMCLNPDLEGPPLEAYTIQGQYAIPQPDLTKLHQLAMQQSHFPMTHGNTGFSGIESSSPEVKGYWGLDASAQTTSHELTIPNDLIGCIIGRQGAKINEIRQMSGAQIKIANPVEGSTDRQVTITGSAASISLAQYLINVRLSSETGGMGSS
As to B5, in the experiment with 3×MBT domain of L3MBTL1, the “3xMBT/D355N UNC Heavy” value is recorded as 1.88 log base 2 and the “3xMBT/D355N UNC Light” value came out at 2.41 log base 2. Besides, in the experiment with G9a and GLP, the “Relative to UNC0638 UNC Heavy” value is on record as 0.13 log base 2, the “Relative to UNC0638 UNC Light” value was 0.21 log base 2 and the “Relative to UNC0638 Average” value came to 0.17 log base 2.

The record behind these values is US20140274782A1, “AFFINITY REAGENTS AND METHODS FOR DETECTION, PURIFICATION, AND PROTEOMIC ANALYSIS OF METHYLATED PROTEINS” (The Board of Trustees of the Leland Stanford Junior …, priority 2013, published 2014).
